From the nanobody polyreactivity screen of Harvey et al. (2022)

Experiment: yeast display, Sf9 membrane polyspecificity reagent, FACS + sequencing; frameworks hold sequencing errors
Summary of the method: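 A nanobody's polyreactivity label depends on the gate it was sorted from. Yeast display cells were stained with 10% biotinylated, detergent-solubilized Sf9 membrane reagent for 1 hour at 4 °C, enriched on streptavidin microbeads and sorted by FACS. The low and high (top ~1%) gates were set on anti-HA fluorescence for expression and streptavidin fluorescence for reagent binding.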

## QVQLVESGGGLVQAGGSLRLSCAASGRTYAYYAIGWYRQEPGKERELVAAISSGGSTYYADSVKGLFTISRDNAKNTVYLQMNSLKPEDTAVNYCATRDKQYYYWGQGTQVTLSS
  polyreactivity (PSR sort gate): high polyreactivity

## QVQLVESGGCLVQAGGSLRLSCAASGRTFYGYAMGWYRQAPGKERELVATITSGGSTNYADSVKGRFTISRDNAKNTVYLQMNSLKPEDTAVYYCAATTRLYGRHRRYNYWGQGTQVTVSS
  polyreactivity (PSR sort gate): high polyreactivity

## QVQLVESGGGLVQAGGSLRLSCAASGFTFSWYAMGWYRQAPGKERELVAAITSGGGTNYADSVKGRFTISRDNAKNTVYLQMNSLKPEDTAVYYCAARGRWFYYLDDYWGQGTQVTVSS
  polyreactivity (PSR sort gate): low polyreactivity

## QDQLVESGGGLVQAGGSLRLSCAASGRIFHFNAMGWYRQAPGKERELVAAITSSGGSTDYADSVKGRFTISRDTAKNTVYLQMNRLKPEDTADYYCAKRVDAYGWWGRRSGVLSDYWGQGTQVTVSS
  polyreactivity (PSR sort gate): low polyreactivity

## QVQLEESGGRLVQEGGSLRLSCAASGYIFQGNAMGWYTPAPGKERELVAAITSSGGRTYYADSVKGRFTISRDNAKNTVYLQMHSLKPEDTAVYYCAAKSVRRGGGEYWGEGTQVTVSS
  polyreactivity (PSR sort gate): high polyreactivity

## QVQLVESGGGLVQAGGSLRLSCAASGRILPYYAMGWYRPAPGKERELVAALTGGGGSTYYADSVKGRFTISRDNAKNTVYLQMNSLKPEDTAVYYCAKPRGRASLALYRFSLYYYWGQGTQVTVSS
  polyreactivity (PSR sort gate): high polyreactivity

## QVQLVESGGGLVQAGGSLRLSCAASGSTFSGYAMRWYRPAPGKERELVAAISWSGGSTYYADSVKGRFTISRDNAKNTVYLQMNSLKPEDTSVNYCNALESTIRGYPYDYWGQGTQVTVSS
  polyreactivity (PSR sort gate): low polyreactivity

## QVQLVESGGGLVQAGGSLLLSCAASGSLFYRYAMGWYRQAPGKERELVAAISWGGGRTYYADSVKGRFTISRDNAKNTVYLQMNRLKPEDTAVYSCNREKYVRWIREDYDYWGQGTQVTVSS
  polyreactivity (PSR sort gate): high polyreactivity

## QVQLVESGGGLVQAGGSLRLSCAASGSTFQSYTMGWYRPAPGKERELVAAISSSGGRTYYADSVKGRFTISRDNAKHTVYLQMNSLKPEDTAVYYCAAVTQSWRGATWYDYWGQGTQVTVSS
  polyreactivity (PSR sort gate): high polyreactivity

## QVQLVESGGGLVQAGGSLRLSCAASGRTFGYNAMGWYRQAPGKERELVAAITYSGGRTSYADSVKGRFTISRDNAKNTVYLQMNSLKPEDTAFYYCAAQPRYYSGYNYWGQGTQVTVSS
  polyreactivity (PSR sort gate): high polyreactivity

## QVQLVESVGGIVQAGGSLRLSCAASGGICYEYAMGWYRQAPGKERELVATISFNVASTYADSVKGRFTISRDNAKNTVYLQMNSLKPEDTAVDYCIADTYWDRDSRYDYWGLGTQVTVSS
  polyreactivity (PSR sort gate): low polyreactivity

## QVQLVESGGGLVQAGGSLRLSCAASGRIFANYAMGWYRQAPGKERELVAAIYWSDDDTYYADSVKGRFTISRDNAKNTVYFQMNRLIPEDTAVYYCAADGRYGWYYGVYNGEDYWGQGTQVTVSS
  polyreactivity (PSR sort gate): high polyreactivity

## QVQLVESGGGLVQAGGSLRLSCAASGNILIGNVMGWYRQAPGKERELVAAITSGGDTYYADSVKGRFTISRDNAKNTVYLQMNSLKPEDTAVYYCNAYYYFWGQGTQVTVSS
  polyreactivity (PSR sort gate): low polyreactivity

## QVQLVESGGGLDQAGGSLPLTCAASGSIFDPNAMGWYRQAPGKERELVANNTIGGRTNYADSVKGRFTISRDNPKNTVYLQMNSLKPDDTAVFYCAKDSPYTSVTVLAPIIYESWGKGTQVTVSS
  polyreactivity (PSR sort gate): low polyreactivity

## QVQLVESGGGLVQAGGSLRLSCAASGSTFPYYAMGWYRQAPGKERELVAAISGSGGTTYYADSVKGRFTISRDNAKNTVYLQMNILKPEDTAVYYCAAEASHYYYNAYPSYGGSDYWGQGTQVTVSS
  polyreactivity (PSR sort gate): low polyreactivity

## QVQLVESGGGLVQAGGSLRLSCAASGRTFYSYAMGWYRQAPGKERELVAAISKRGTSTYYADSVKGRFTISRDNAKNTVYLQMNSLKPEDTAVYYCAAAYRGREVEYNCWGQGTQVTVSS
  polyreactivity (PSR sort gate): high polyreactivity

## QVQLVESGGGLVQAGGSLRLSCAASGRTFPWYAMGWYRQAPGKERELVADITWSGGSTYYADSVKGRFTISRDNAKNTVYLQMNSLKPEDTAVYYCATRVLFWYRKYPGRPLTKYDYWGQGTQVTVSS
  polyreactivity (PSR sort gate): high polyreactivity

## QVQLVESGGGLFQAGGSLRLSCAASGRIFNSNTMGWYRPAPGKDRELVARIDTGGGSTYADSVKGRFTISRDNAKNTVYLQMNSLQPEDTAVYHCNKIGRWRSWGSTSLVSMDYWGQGTKVTVSS
  polyreactivity (PSR sort gate): low polyreactivity

## QVQLVESGGGLVQAGGSLRLSCAASGSIFHPYTMGWYRQAPGKERELVAAISWSGGNTNYADSVNGRFTISRDNAKNTVYLQMNSLKPDDTAVYYCNKATNLSGGYDSWGQGTQVTVSS
  polyreactivity (PSR sort gate): low polyreactivity

## QVQLVESGGGLDQAGGSLRLSCAASGSIFDANAMVWYRQAPGKERELVAAITSSGGITYYADSVKGRFTISRDNAKNTVYLHLNSLKPADTAVYYCAAEYGYIDYSYLYWYDYWGQGTQVTVSS
  polyreactivity (PSR sort gate): high polyreactivity

## QVQLVESGGGLVQAGGSLRISCAASGFIFPWYTMGWYRQAPGKERELVAVINQSGGSTYYADSVKGRFTISRDNAKNTVYLQMNSLKPEDTAVYYCAARLVKQYYYWGQGTQVTVSS
  polyreactivity (PSR sort gate): high polyreactivity

## QVQLVESGGGLVQAGGSLRLSCAASGSTLVTYAMAWYRQAPGKERELVAAISGGTGTDYADSVKGRFTISRDNAKNTVYLQMNSLKPEDTAVYYCAAKSSSNKVDYYYWGQGSQVTVSS
  polyreactivity (PSR sort gate): low polyreactivity

## QVQLVESGGGLVQPGGSLRLSCAASGLTFDDNAKGWYRHAPGKERELVAAISKSGDGTYYADSVKGRFTISRDNAKNTVYLHMNSLKPEDTAVYYCNADAKYWRYVYWWFGDDYWGQGTQVTVSS
  polyreactivity (PSR sort gate): low polyreactivity

## QVQLVESGGGLVQAGGSLRLSCAASGRTFRSYTMGWYRQAPGKERELVAAIRTSSGSTYYADSVKGRFTISRDNAKNTVYLQMNSLKPEDSGVYYGAKTLLYPWFRTVAVDYWGQGTQVTVSS
  polyreactivity (PSR sort gate): low polyreactivity

## QVQLVESGGGLVQAGASLRLSCAASGSIFFPYAMGWYRQAPGKERELVASITRAGSTNYADSVKGRFTISRDNAKNTVYLQMTSQKPVDTAVYYCAARNYRQFEYGYWGQGTLVTVSS
  polyreactivity (PSR sort gate): low polyreactivity

## QVQLVESGGGLVQAGGSLRLSCAASGRTFFRNAMGWYRQAPGKERELVAAISKRGGSTYYADSVKGRFTISRDNAKNTVYLQMNSLKPEDTAVYYCNADPRTVGLDYWGQGTQVTVSS
  polyreactivity (PSR sort gate): high polyreactivity

## QVQLVESGGGLVQAGGSLRLSCAASGRIFRYYDMGWYRQAPGKEREFVAAITRSGAITYYADSVKGRFTISRDNAKNTVYLQMNSLKPEDTAVYYCAARYWSKFGYWGQGTQVTVSS
  polyreactivity (PSR sort gate): low polyreactivity

## QVQLVESGGGLVQASGSLRLSCAASVRIFFVNAMGWYRQEHGKERELVAAIPSSGGSTYYADSVKGRFTISRDNAKNTVYLQMNSLKPEDTAVYYCNARSWYPYDYWGQGTQVTVSS
  polyreactivity (PSR sort gate): low polyreactivity

## QVQLVESGGGLVQAGGSLRLSCAASGRTYVYTMGWYRQAPGKERELVAAIRYSGGRTYYADSVKGRFTISRDNAMNTVYLQMNSLKPEDTAVYYCAARNYATGVRYDYWGQGTQVTVSS
  polyreactivity (PSR sort gate): high polyreactivity

## QFQLVESGGGLDQAGGSLRLSCAATGSTFTSYAMGWYIQAPGKERELVAAITSRGGTYYADSVKGRFTISRDNAKNTVYLQMNSLKPEDTAVYYCAARATYKKYPYVKWYDYWGQGTQVTVSS
  polyreactivity (PSR sort gate): high polyreactivity

## QVQLVESGGGLVQAGGSLRLSCAASGFTFGSYAMGWYRQAPGKERELVAASTRRGDNTYYADSVKGRFTISRDNAKNTVYLQMNSLKPEDTAVYYCNVGLRSVVSGEYWGHGTQVTVSS
  polyreactivity (PSR sort gate): high polyreactivity
